Data published in PMC8849478.

Experiments:
[1] = biological target: human haptoglobin, mixture of phenotypes Hp2-1 and Hp2-2 (human) (UniProt P00738); assay: stopped-flow fluorescence spectrometry; Hp (0.25 μM, Hb tetramer binding basis) rapidly mixed with excess Hb/metHb at various concentrations; excitation 285 nm, emission 310 nm; monoexponential fit gives pseudo first order constants, linear regression against Hb/metHb concentration gives the bimolecular rate constant
human hemoglobin (human) = human hemoglobin (human) (UniProt P69905); assay: SEC; tetramer to dimers; SEC-HPLC of samples at 1.25, 2.5, 5, 10 and 20 μM (heme basis) after incubation in 0.1 M PBS pH 7.4 at 4°C for one week; fraction of tetramers by deconvolution, Kd from the intercept of the linearised plot (Eq 3)
[2] = biological target: human methemoglobin (human) (UniProt P69905); assay: as above

human methemoglobin, P69905 1-142; P68871 1-147 (complex; other documents disagree on this pair), sequence (P69905 whole entry): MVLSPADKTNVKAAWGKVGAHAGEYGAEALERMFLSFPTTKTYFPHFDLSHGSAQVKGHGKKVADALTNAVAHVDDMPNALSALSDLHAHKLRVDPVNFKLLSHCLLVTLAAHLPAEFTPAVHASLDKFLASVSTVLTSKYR
human methemoglobin, P69905 1-142; P68871 1-147 (complex; other documents disagree on this pair), sequence (P68871 whole entry): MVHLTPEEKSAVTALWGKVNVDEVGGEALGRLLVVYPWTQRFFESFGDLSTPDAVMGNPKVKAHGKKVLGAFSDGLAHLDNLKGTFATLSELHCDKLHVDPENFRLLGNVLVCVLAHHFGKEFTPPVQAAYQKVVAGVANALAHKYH
human hemoglobin, P69905 1-142; P68871 1-147 (complex; other documents disagree on this pair), sequence (P69905 whole entry): as the sequence (P69905 whole entry) above
human hemoglobin, P69905 1-142; P68871 1-147 (complex; other documents disagree on this pair), sequence (P68871 whole entry): as the sequence (P68871 whole entry) above
bovine methemoglobin, sequence (P01966 whole entry): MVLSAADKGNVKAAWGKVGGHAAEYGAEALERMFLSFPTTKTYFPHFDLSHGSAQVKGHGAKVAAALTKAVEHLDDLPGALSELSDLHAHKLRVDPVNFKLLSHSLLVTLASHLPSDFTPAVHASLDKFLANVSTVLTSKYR
bovine methemoglobin, sequence (P02070 whole entry): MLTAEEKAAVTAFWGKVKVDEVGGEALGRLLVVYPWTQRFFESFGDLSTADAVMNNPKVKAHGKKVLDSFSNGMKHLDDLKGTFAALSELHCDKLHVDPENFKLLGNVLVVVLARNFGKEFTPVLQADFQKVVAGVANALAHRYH
bovine hemoglobin, sequence (P01966 whole entry): as the sequence (P01966 whole entry) above
bovine hemoglobin, sequence (P02070 whole entry): as the sequence (P02070 whole entry) above

| Substance | kon [1] [M⁻¹ s⁻¹] | further results |
| --- | --- | --- |
| bovine methemoglobin (from UniProt P01966 1-142; P02070 1-145) (complex) | 140000 |  |
| bovine hemoglobin (from UniProt P01966 1-142; P02070 1-145) (complex) | 147000 |  |
| human hemoglobin, P69905 1-142; P68871 1-147 (complex; other documents disagree on this pair) |  | Kd (human hemoglobin (human)): 230 nM |
| human methemoglobin, P69905 1-142; P68871 1-147 (complex; other documents disagree on this pair) |  | Kd [2]: 450 nM |
